The results in this text go back to the NTF2 design screens of Basanta et al. (2020).

A short description of the data set: protease stability score; higher = more stable; yeast display proteolysis, trypsin and chymotrypsin.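 Further: log10 excess protease needed over predicted unfolded state with 0 meaning unfolded.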

Take “DQRDVKKAEHLLRILETGNESELKKMMDPNARARVGDTTYHGMDDFVRKLTHMRDRAKFEIKEYSATDHNGHIRVHVRREVNFNGRPDRVSFIVRFDIENGKVRSVIFNLPRELLEREKK”: the protease stability score is 0.429.
In turn, “DQREIVTKILRDFVKAFKTGDQDKYEKLVDKDVEYNIGDKTYHGREEAKKLFRELVKQVDHYSVHYKSISVRNGRAKVEAIQYYKHDGRTYHNKVSYTFRIQGDKIRMQDATFS” gave a protease stability score of 0.602.
In turn, “DQRERQEHAEHFNRVLQTNDPDRIKKLFDPNAKLQIGDSTFTGREDIDDAAKELKEQADHITVDRVHVHGNKVTLRFVMNVDGKSADATVTMIVKNGRAKEVHFDPRLEEQIKK” registered a protease stability score of -0.407.
The figure for “DQRERVKKLFDRFQHNIKHGDKSKATNQFPPDVTMSIGDEDLHGRDAAKRYADNVANNADRFHHEIQDYKQKGNNANLRVKIVLNHNGTNHSHEADWVAVVHNGQARLKEVKFD” is -0.078.
Sequence “DQRLWERFVKDLEENDEKSWQDLVDKDAKVEVGDTSYQGREHALTAIQKWVHQVDHVEIKSYRIHGDNVQIRMEVVINGRKMQVTVQAHLHNGKMKNIHMEATDRHVVEKLRELIS” gave a protease stability score of 0.039.
In the case of “DQRTREKVAEDIDNNDPQKLQDQADENVRVEYGNKVVHGREQMQEWARSLKDDVDSLEVDHVELDGDKIDARVNFNVNGRRVVFTIEADAHNGTIQRLRMTVTSEEQDTHMKQAAN” it was -0.209.
Sequence “DQSELRDFVEEFLEIFRHGNEDDARRLVDKDATAKVGDKTYNGEEQVLDFLKQLRNRADHVQIDTFRVEGDKMEAHMRLNVNGKTVQVVIQAEVRNGRIKHFRMDPNDLRKLEK” came in with a protease stability score of 0.657.
The sequence “DQTALKVFKEYLEVVLNGDEHEAVELVDKDVRMNVGDKRWHGQEHIEREIRNQTRHSRLDYDHVRFEDDGDKAVFKRTVRFTHNGKPDSSRNVMHATADNGRIKSMKVEDDR” showed a protease stability score of -0.334.
As to “DQTDEAEKWMEHITRVLHHNDTDQMLELADENVKIDIGDKTYHGREQFSQLLRDIAERVDHFSQRIDSIRVNGDKVRIDFKNVLDHNGRKHSQQVVVEINRTNGQWRLKSLHKK”, the protease stability score worked out at 0.151.
In the case of “DRDDFRRVIHEVQKALKHGDREQLRRLLDENAKVKVGDKEYQGDERAVKVMTTIANKADRMEYKDIHLHGDSVYINVVLNHNGKKDTVVWVIAVNNGKVQFFAQETR” it was 1.01.
“DRDEVHHLHELYKAIEDGDDKKAQDLMDENAKARIGDKHFRGMQHFVETLKKEKDHMRVKIDNMRFTERPNRVVVNIEVKRSNNGEPESEVYRAFADAHNGKFVNLVIEHNQ” came in with a protease stability score of -0.056.
In turn, “DRDKERKVIEKLMNALQNNDENQIRKLIDPNARLVYGDKELHGREEVVKFLVTLLNQVDRIEYKSYDFHNGHANIDFTLRFNGQNATFTMEIRVKNGRVDHITLDPQQINRMNS” registered a protease stability score of 0.885.
For the sequence “DRDLNRHVKRFMDIIQNGDPDKAMEMVDPNVEFHVGDKRVHGQEELRELIKKEHDEQRKEIDDMRYDDRGSKAKINIEVRVEHNGRPNTVREDWNVEAKNGKIKRMNAKVDQ”, the protease stability score is -0.495.
As to “DRDQEDSFAKKVADVIQTGNPDDMRKLADEDARVDVGDKQYTGREHVDEAVENERKRIDHQQINSFSVNNGQIHATVSYVHNGQTHRFVVNVEIHNGHIKRARWQSK”, the protease stability score is 0.273.
With “DREAKKRADQYMEVIQNGDPEKFKHQADENVRVEVGNHEYHGRESMAKELKKRRDEIRIDIRRYSIDNQGEKVRIEVDAVAQINGRPRTYSYVFEMTFQNGRIKKFTLQISEDDEQNLKS”, the protease stability score turned out to be 0.014.
As to “DREAKNVFEKLTKAFETGNEDDMRKLLDEDVRFNIGDREVHGREQAVEDLKRKRTQMRVDIHHVDQQNEPNRLSVNVRMVVEHNGRPRDVQRHAVFDVHNGRIKSVKEKDRQ”, the protease stability score was -0.238.
Consider “DREDESELAMRAAVNAATGNEDEVSKNADPNVRAIYGDKNYDGTENMKDVIRQVRERIDHIELKSFEQHGDHAVARAEAKHNGDESTLVVTARAENGRVKSMRFEIR”, for which the protease stability score is -0.275.
The sequence “DREDHEHARTVFHNLQTGDFEEVKSLLDKNAKLTVGDRVLEGRDEIARQIRNELEEIRVEYVSVTFTVEGDKAQVHMVFKAEWNGNPADVRNVLRISQHNGRIKTMFIQISESQLEEYNR” showed a protease stability score of 0.287.
As for “DREDLAREMVERLEDIMKHNNEKELVNQMDENVRMTIGDKEYEGREAATKEAHDLFRRADHLRLSVETFNVQGDKAVITFQVVFNHNGRKSHDRVILDFRISGDKVKLVSQTKG”, the protease stability score was 0.509.
Consider “DREDNEQVKKILETNDFHRLAEQADKDAKAVVGEKRYHGREHVREALLRLQKQADHLEIDSMDTSGDKVVMRAKLKINGKTMDVTFDVVVHNGRLQHFEMSATTEDDERIQRTANS”, for which the protease stability score is 0.743.
The figure for “DREDQEEVARHLVEVLERGDPQKMLELADPNVRAEVGDKRYHGREDLKSIMDELSRQVDRIQVVHLDVKGNTVRVTVKNRVNGVVVDLVIIFHFRNGKLRDVTIDARNEEQLKKREG” is 0.754.
“DREDTAREAAHEAIKIWKTGDPEKLKELFDPNVKVKIGDRTVHGREELVRQIRHEREQVDHLSFDLEDYKMDGDQMHVVVRFTANRNGRRTEDKQVYNASFHNGQFRIHEMNKK” came in with a protease stability score of -0.356.
The figure for “DREEAKKIRKNWETNNWDHFAHQADENVRVRVGDKKYHGHHKLLEIMHQIEKRIDHARFDHIDLDGEKLTVDFQMVVNGKKVRYVMFIKVSNGRIKEVNIQFTSEEEERRAQEALR” is 0.732; for “DREEAKKVAEKAAKYFQNWNVEQLLKLIPDGGKYRIADEERHGPDVIKEVVEKQQRMGLEVEVKEVHAEGDTVHTVLDYRLGDTTATVHIQAKVQGGRIDEVQVDIPEEAQKMLKQG” it is 0.401; for “DREEHASQLFRDMQEVYHNNDPSKFKHLVDENVTRDVGDKTVHGQDEMAREMEKEARRVDKVRFDVRDVKSNNGRIKVRFVVTHNENGRERSSDVTVRFQVSNGRLVIESQTET” it is -0.206.
Sequence “DREEKVREALETLQKAFRTGDPRLFVEQLDPNVRIEVGDKTVHGREQASEWAKRMRDKFDHFEVKIHDMSVQGDKFSVKVSLRQDVNGTDVQRDNHYTIVFHNGRVHVQNINNK” registered a protease stability score of 0.644.
In the case of “DREEQKKVAKHMDDLVRTGDPREATDLIDPNAKADVGDKQYHGREQLHKLFKEQHERADHADLKSFDAHNGKVEVNVIIQVNGRRHRVIYHADADNGRVKFVSVRSS”, the protease stability score is -0.164.
In the case of “DREEQSEFAKKFLEVVMHGDPKKIRKLADPNAKADVGDKKYHGRESMAKWAHDFRKEVDHIEFKDLKVDGETARLDVVYDVNGHKERQVVVVTAHNGRVKHMQVEEG” it was -0.18.
The figure for “DREERARQLLRELLKALETGDEDTAANQADPNVRVSVGDRTYHGREQYRTFLRKVAERVDHLEVRVDRVTQDNGQIHMDMTVRHEKNGRTHRKEFVIQIDVQGDKNRFVQMRHK” is -0.163; for “DREERHRAEQWLNAIKTNNPDDVVEQADKDVRLEVGEERVSGRSELRKEVDKDRKRWDFEIDHVDIKVHNGRIHMTVDVVVRHNGKPDKQEQEYTIEFSNGRARTIVARQNK” it is -0.229.
In the case of “DREERKKIAQTILKIFETGDHKKFKRQIDPNVEVVVGDRTYKGRTQATKAFNEIQEKVDEVDVKTVHYKGDHAIVDAVLVINGRRVTVYFHLTIHNGRVKSISMQFRDEEDERKFRG”, the protease stability score was found to be 0.367.
“DREEVKKIKRLIETNDWRTLAQQADENVEIVYGNKTIHGREQALKFWDILRKHADHIEIKRFDNQGDKVRVNMTVEVNGRHITMNMNIVFHNGRLKEVEIRVTDEKQLKEIEDLVQ” gave a protease stability score of 1.59.
Sequence “DREEVRQVDQWMKNQQRNNPDELVKLADPNVEFRIGDKTVHGMRRYADDVRRKREHIRLEFKHMKIEDQNGRVILRAKAQREHNGKPETFTMQITFEAHNGRIKKAVITTQK” had a protease stability score of 0.044.
Sequence “DREIQHQVTELLEARRRGDEKRLQQNFDPNARMRIGDKEWHGMDTAAEEIAHEQREMRFDVKSIEVRVSGNKVSVDNRYVLEHDGRPHEFVQHDDVEMSNGKFKTAEVKHDG” returned a protease stability score of -0.408.
Regarding “DREKEAHELIEHFVRMLETGDEEKFKEMMDKDAKLHVGDKDVHGRDDVDRHLAQEYKQYDHVHFRVKDVKVRGDTIEAQVEVQFDHNGKTDTRTYRFVMRVDNGDVKFQSVSNS”, the protease stability score stood at 1.45.
In the case of “DREKQSEISTMMQKGDPQHLVDLADENAHVEIGNKRVHGRNQIKEYADRFHERVDHYSVRSIEIEGDTVTVTAYFVVNGQNIEWTMQMQNHNGKVKRIRVRFTNEELEKQLDKALS” it was 0.846; in that of “DRELNQLFRDYVHALKTGDEDELRKQADPNVRIEIGDKEWHGMEKIATEQKKRHDEIRVQIDVKEVSVHNGRVEAELEVVDQQNGRPEKRKVTVTAEYENGKLQHQRYQSDG”, -0.442.
For “DRELRQNLHEFWKQQETGNPDELRKMVDPNARIVIGDKTYSGMDNAAQRMAESNQELSVDIKRLDLQASNGRVTIKLDAVKNHNGQPSRKTVTQTIRIHNGRIKHISMREDG”, the protease stability score is -0.448.
Consider “DREMLKDVKRLLEVINKGNEDEMRKMVDPNAKFVIGDKEITGREEFAKQMKRHKDEIRIDIKVKHLTAKGNRATVRATATRDHNGQPQSFKVTMRVTFSNGKVKKVHYDYTK”, for which the protease stability score came to 0.065.
Sequence “DREQAERLIRIMENERTGDPDKVVEMVDPNAKFKVGNTTYKGREELRKEVETRQKKARFEMSIQDYSVHGDTASIRYTLVINVNGQPHESTFNLEARFHNGKVRELHVKFDEQRMRDIQS” yielded a protease stability score of 0.49.
Consider “DREQQHVAREFLEAHNEGDEDRMVQLADPNARVHVGDKEVHGREELKKWVRDVEKKMNVQIDVRSIHAHNGKIRITARISFKINGEPRSDRIRFDFRAHNGTLKDFHLKVSEEQRKKKQQ”, for which the protease stability score was 0.075.
“DRERLADELRRRLEKVMTTGDPTELDKLMDPNARILYGDQKFHGREHVKEFAKTLNDQYDHVTIRLVSYDIKNGEIHIVVDVVFRHNGQTRTKRINFVARVHGDKVKIESINIP” yielded a protease stability score of 1.3.
The figure for “DRERQKKNLKDFVDALTKGDPDQVVKQFDKDARVRVGDKQVEGRDQIREFAKEWSKHVDRFRITEMRVHNGRLDIQAEQHHNGRKRRIQVEVNWHNGQIKNMQWTHG” is 1.4.
The sequence “DRERRHEFATEVVENLKQGDWKRLVEQADKDVTADIGDTKYKGRETFSKWAQQFVRRVDRVEIVDMRLDGDEVRINMDVKHNGQTRRSVFIARWHNGRIKHFRIETG” showed a protease stability score of 1.62.
With “DREVIKLAKRMITALQKGDHQKFVNLLDPNVRIDVGDKEVHGQEEAQERLREETRQIRVDNHVKTIDDNNGRANFKMSVNAQVNGKPVHYEVNAVVHAHNGKARRLHIKVPEEDKRHLDR”, the protease stability score amounted to 0.034.
In the case of “DREVLKEFLKQFHEGNFHEVARMADPNAEVEVGDKTVEGREHLITLHKHIHDKADHASIHRVEIHNGRINVELTVNFNGTNVVYRFTLEAENGKLKNINYRARDSDQKRILKRLWG”, the protease stability score turned out to be 0.091.
The sequence “DREVQEHIEQFWKVYRTGDEKRIVELLDPNVKFDYGDRTVEGRETVREEVKKHHDEQRVDFKSVDVKVTNGRIDVKVRAKYHHNGTPDEQKFTASASLNNGRVKHMSRQTSK” returned a protease stability score of -0.181.
